Legend:
[1] = target: recombinant truncated oyster intraflagellar transport protein 74-like protein (roIFT) (Crassostrea gigas (Pacific oyster)); assay: ELISA
[2] = target: recombinant truncated oyster tumor necrosis factor (roTNF) (Crassostrea gigas (Pacific oyster)); assay: ELISA

Substance | P/N (OD450 of sample over negative control) [1] | P/N (OD450 of sample over negative control) [2]
P protein of HuNoV GI.1, recombinant, purified (domain or fragment) | 6.97 | 5.88
P protein of HuNoV GII.4, recombinant, purified (domain or fragment) | 3.95 | 5.33
